What follows are substances tested against HIV-1 integrase (IN) (HIV-1) (assay: not given).

Question: What does the source list for peptide 4a (FIHFAIG)?
Answer: 3'-P IC50 (in vitro IN 3'-processing assay): > 111 µM; ST IC50 (in vitro IN strand transfer assay): > 111 µM

Question: Which 3'-P IC50 (in vitro IN 3'-processing assay) does the source give for peptide 1a (FIHFRIG) here?
Answer: Its 3'-P IC50 (in vitro IN 3'-processing assay) is 17.6 µM.

Question: What about the ST IC50 (in vitro IN strand transfer assay) of the same substance?
Answer: The ST IC50 (in vitro IN strand transfer assay) was 1.3 µM.

Question: How did the 3'-P IC50 (in vitro IN 3'-processing assay) turn out when peptide 3b (FIHFRAG-amide) was run?
Answer: Its 3'-P IC50 (in vitro IN 3'-processing assay) is > 111 µM.

Question: What about the ST IC50 (in vitro IN strand transfer assay) of the same substance?
Answer: Its ST IC50 (in vitro IN strand transfer assay) is > 111 µM.

Question: With peptide 10a (FIHFBIG) as the substance, how does the 3'-P IC50 (in vitro IN 3'-processing assay) read?
Answer: The 3'-P IC50 (in vitro IN 3'-processing assay) was > 333 µM.

Question: What about the ST IC50 (in vitro IN strand transfer assay) of the same substance?
Answer: Its ST IC50 (in vitro IN strand transfer assay) is 48 µM.

Question: Which results are given for peptide 5a (FIHARIG)?
Answer: 3'-P IC50 (in vitro IN 3'-processing assay): > 111 µM; ST IC50 (in vitro IN strand transfer assay): 46.6 µM

Question: Which results are given for peptide 6b (FIAFRIG-amide)?
Answer: 3'-P IC50 (in vitro IN 3'-processing assay): 95.4 µM; ST IC50 (in vitro IN strand transfer assay): 35 µM

Question: Which results are given for peptide 5b (FIHARIG-amide)?
Answer: 3'-P IC50 (in vitro IN 3'-processing assay): > 111 µM; ST IC50 (in vitro IN strand transfer assay): > 111 µM

Question: peptide 12a (FIBFRIG) was tested. Which 3'-P IC50 (in vitro IN 3'-processing assay) did it give?
Answer: The 3'-P IC50 (in vitro IN 3'-processing assay) was 6.5 µM.

Question: And the ST IC50 (in vitro IN strand transfer assay)?
Answer: The ST IC50 (in vitro IN strand transfer assay) was 2.2 µM.

Question: peptide 7a (FAHFRIG) was tested. Which 3'-P IC50 (in vitro IN 3'-processing assay) did it give?
Answer: The 3'-P IC50 (in vitro IN 3'-processing assay) was > 111 µM.

Question: And the ST IC50 (in vitro IN strand transfer assay)?
Answer: Its ST IC50 (in vitro IN strand transfer assay) is 73.5 µM.

Question: With peptide 11a (FIHBRIG) as the substance, how does the 3'-P IC50 (in vitro IN 3'-processing assay) read?
Answer: Its 3'-P IC50 (in vitro IN 3'-processing assay) is 34 µM.

Question: And the ST IC50 (in vitro IN strand transfer assay)?
Answer: Its ST IC50 (in vitro IN strand transfer assay) is 4.2 µM.

Question: What does the source list for peptide 8b (AIHFRIG-amide)?
Answer: 3'-P IC50 (in vitro IN 3'-processing assay): > 111 µM; ST IC50 (in vitro IN strand transfer assay): > 111 µM

Question: What does the source list for peptide 8a (AIHFRIG)?
Answer: 3'-P IC50 (in vitro IN 3'-processing assay): 86.3 µM; ST IC50 (in vitro IN strand transfer assay): 22.7 µM

Question: For peptide 4c (Ac-FIHFAIG-amide), which 3'-P IC50 (in vitro IN 3'-processing assay) is on record?
Answer: The 3'-P IC50 (in vitro IN 3'-processing assay) was > 333 µM.

Question: And the ST IC50 (in vitro IN strand transfer assay)?
Answer: The ST IC50 (in vitro IN strand transfer assay) was 81 µM.

Question: How did the 3'-P IC50 (in vitro IN 3'-processing assay) turn out when peptide 13a (FBHFRIG) was run?
Answer: The 3'-P IC50 (in vitro IN 3'-processing assay) was 37 µM.

Question: What about the ST IC50 (in vitro IN strand transfer assay) of the same substance?
Answer: Its ST IC50 (in vitro IN strand transfer assay) is 20 µM.

Question: Which results are given for peptide 8c (Ac-AIHFRIG-amide)?
Answer: 3'-P IC50 (in vitro IN 3'-processing assay): > 333 µM; ST IC50 (in vitro IN strand transfer assay): 46 µM

Question: peptide 14a (BIHFRIG) was tested. Which 3'-P IC50 (in vitro IN 3'-processing assay) did it give?
Answer: Its 3'-P IC50 (in vitro IN 3'-processing assay) is 7.2 µM.

Question: What about the ST IC50 (in vitro IN strand transfer assay) of the same substance?
Answer: Its ST IC50 (in vitro IN strand transfer assay) is 2.1 µM.

Question: Which results are given for peptide 4b (FIHFAIG-amide)?
Answer: 3'-P IC50 (in vitro IN 3'-processing assay): > 111 µM; ST IC50 (in vitro IN strand transfer assay): > 111 µM

Question: For peptide 2a (FIHFRIA), which 3'-P IC50 (in vitro IN 3'-processing assay) is on record?
Answer: Its 3'-P IC50 (in vitro IN 3'-processing assay) is > 111 µM.

Question: And the ST IC50 (in vitro IN strand transfer assay)?
Answer: The ST IC50 (in vitro IN strand transfer assay) was 34.7 µM.

Question: With peptide 5c (Ac-FIHARIG-amide) as the substance, how does the 3'-P IC50 (in vitro IN 3'-processing assay) read?
Answer: Its 3'-P IC50 (in vitro IN 3'-processing assay) is > 333 µM.

Question: What about the ST IC50 (in vitro IN strand transfer assay) of the same substance?
Answer: The ST IC50 (in vitro IN strand transfer assay) was 117 µM.

Question: What does the source list for peptide 2c (Ac-FIHFRIA-amide)?
Answer: 3'-P IC50 (in vitro IN 3'-processing assay): 74.5 µM; ST IC50 (in vitro IN strand transfer assay): 30.4 µM

Question: For peptide 7b (FAHFRIG-amide), which 3'-P IC50 (in vitro IN 3'-processing assay) is on record?
Answer: Its 3'-P IC50 (in vitro IN 3'-processing assay) is > 111 µM.

Question: What about the ST IC50 (in vitro IN strand transfer assay) of the same substance?
Answer: The ST IC50 (in vitro IN strand transfer assay) was > 111 µM.

Question: What does the source list for peptide 3c (Ac-FIHFRAG-amide)?
Answer: 3'-P IC50 (in vitro IN 3'-processing assay): 208 µM; ST IC50 (in vitro IN strand transfer assay): 28 µM

Question: With peptide 15 (Biotin-linker-BIHFRIG) as the substance, how does the 3'-P IC50 (in vitro IN 3'-processing assay) read?
Answer: Its 3'-P IC50 (in vitro IN 3'-processing assay) is 32 µM.

Question: And the ST IC50 (in vitro IN strand transfer assay)?
Answer: The ST IC50 (in vitro IN strand transfer assay) was 2.3 µM.

Question: With peptide 6c (Ac-FIAFRIG-amide) as the substance, how does the 3'-P IC50 (in vitro IN 3'-processing assay) read?
Answer: Its 3'-P IC50 (in vitro IN 3'-processing assay) is 94 µM.

Question: What about the ST IC50 (in vitro IN strand transfer assay) of the same substance?
Answer: Its ST IC50 (in vitro IN strand transfer assay) is 3.5 µM.

Question: How did the 3'-P IC50 (in vitro IN 3'-processing assay) turn out when peptide 6a (FIAFRIG) was run?
Answer: Its 3'-P IC50 (in vitro IN 3'-processing assay) is 17.4 µM.

Question: What about the ST IC50 (in vitro IN strand transfer assay) of the same substance?
Answer: Its ST IC50 (in vitro IN strand transfer assay) is 6.7 µM.

Question: Which 3'-P IC50 (in vitro IN 3'-processing assay) does the source give for peptide 2b (FIHFRIA-amide) here?
Answer: The 3'-P IC50 (in vitro IN 3'-processing assay) was > 111 µM.

Question: What about the ST IC50 (in vitro IN strand transfer assay) of the same substance?
Answer: Its ST IC50 (in vitro IN strand transfer assay) is 60.6 µM.

Question: How did the 3'-P IC50 (in vitro IN 3'-processing assay) turn out when peptide 3a (FIHFRAG) was run?
Answer: Its 3'-P IC50 (in vitro IN 3'-processing assay) is 66.5 µM.

Question: And the ST IC50 (in vitro IN strand transfer assay)?
Answer: The ST IC50 (in vitro IN strand transfer assay) was 22.4 µM.

Question: peptide 7c (Ac-FAHFRIG-amide) was tested. Which 3'-P IC50 (in vitro IN 3'-processing assay) did it give?
Answer: Its 3'-P IC50 (in vitro IN 3'-processing assay) is > 333 µM.

Question: What about the ST IC50 (in vitro IN strand transfer assay) of the same substance?
Answer: Its ST IC50 (in vitro IN strand transfer assay) is 127 µM.

Question: What does the source list for peptide 9a (FIHFRBG)?
Answer: 3'-P IC50 (in vitro IN 3'-processing assay): 20 µM; ST IC50 (in vitro IN strand transfer assay): 4.3 µM

Biological target: HIV-1 integrase (IN) (HIV-1)
Test: not given
Remark: another data set of the same source

Question: Which 3'-P IC50 (in vitro IN 3'-processing assay; data not shown) does the source give for “Vpr (69–75) peptide with the amino-terminal Phe (Vpr69) replaced with Glu (from UniProt P12520 69-75)” here?
Answer: Its 3'-P IC50 (in vitro IN 3'-processing assay; data not shown) is > 111 µM.

Question: And the ST IC50 (in vitro IN strand transfer assay; data not shown)?
Answer: Its ST IC50 (in vitro IN strand transfer assay; data not shown) is > 111 µM.

The substances below were run against HIV-1 integrase (IN) (HIV-1) (assay: cross-linking).

Question: With peptide 15 (Biotin-linker-BIHFRIG) as the substance, how does the stoichiometry N read?
Answer: Its stoichiometry N is 1.

Source: PMC6222646, “HIV-1 Integrase-Targeted Short Peptides Derived from a Viral Protein R Sequence” (Molecules : A Journal of Synthetic Chemistry and Natural …, 2018)
